Measurements reported in paper doi:10.1101/164319.
Each block holds one substance with its values, some of them ahead of it.

Target: Arp2/3 complex from strain Arp2cys-Arp3cys, labeled with Alexa 488 and Alexa 594 (Schizosaccharomyces pombe) (UniProt P78774)
Assay: FRET or BRET

Chain of UniProt P78774 (P78774 whole entry, looked up, one chain of several): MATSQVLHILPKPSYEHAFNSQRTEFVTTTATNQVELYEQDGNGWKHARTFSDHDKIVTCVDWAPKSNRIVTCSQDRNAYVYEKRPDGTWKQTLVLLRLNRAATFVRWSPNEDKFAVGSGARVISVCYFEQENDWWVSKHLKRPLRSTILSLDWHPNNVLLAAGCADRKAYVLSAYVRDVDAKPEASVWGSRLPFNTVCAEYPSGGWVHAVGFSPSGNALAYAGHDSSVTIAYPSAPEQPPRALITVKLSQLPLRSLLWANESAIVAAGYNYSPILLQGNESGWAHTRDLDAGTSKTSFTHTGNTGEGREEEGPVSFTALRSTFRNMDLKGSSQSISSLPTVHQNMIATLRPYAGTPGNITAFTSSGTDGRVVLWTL

- increase of mean ETeff at 20 μM CA: 0.06
Substance: S. pombe Wsp1-CA (541SC–574D) (from UniProt O36027 541-574) (domain or fragment)

- increase of mean ETeff at 20 μM VCA: 0.13
Substance: S. pombe Wsp1p-VCA (497Q–574D) (from UniProt O36027 497-574) (domain or fragment)

- increase of mean ETeff at 2 μM actin-VCA: 0.12
Substance: VCA crosslinked to an actin monomer (actin-VCA) (from UniProt O36027 497-574; P68139 1-377) (complex)
